Patent US10280205B2, “Method for treating cancer with an activated T lymphocyte that selectively recognizes a cancer cell consisting of specific peptide” (immatics biotechnologies GmbH, priority 2015, dated 2019)

molecular target: HLA-A*02:01 (Homo sapiens, UniProt P04439, D140Y/D185E/D98H/E176V/E277Q/G131W/G231S/I119V/I121R/I166T/I218V/L300P/L318F/N151K/N90K/P208A/P217A/Q86G/Q94H/R138H/R169H/T345S); assay: MHC binding assay: UV-ligand exchange with beta2m ELISA (exchange yield); conditions: binding to HLA-A*02:01, β2m ELISA
Method in brief: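 Peptide–HLA-A*02:01 complexes formed by UV-induced exchange of a photocleavable ligand for the test peptide. Exchange products diluted 100-fold and captured on streptavidin-coated plates. Stabilized complexes detected with HRP anti-β2m (1 h, 37° C.) and TMB, A450; exchange yield reported.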

Substance | Peptide exchange (MHC class I binding score, peptide exchange yield)
174 (ALAQYLITA; listed as Homo sapiens) [compound 174] | “+++” (≥50 = +++)
177 (YLLPEEYTSTL; listed as Homo sapiens) [compound 177] | “++++” (≥75% = ++++)
178 (ALTEIAFVV; listed as Homo sapiens) [compound 178] | “++++” (≥75% = ++++)
179 (KVLNELYTV; listed as Homo sapiens) [compound 179] | “+++” (≥50 = +++)
180 (FQIDPHSGLVTV; listed as Homo sapiens) [compound 180] | “++” (≥20% = ++)
182 (MLLEAPGIFL; listed as Homo sapiens) [compound 182] | “+++” (≥50 = +++)
183 (FGLDLVTEL; listed as Homo sapiens) [compound 183] | “+++” (≥50 = +++)
184 (YLMDINGKMWL; listed as Homo sapiens) [compound 184] | “+++” (≥50 = +++)
187 (RQISIRGIVGV; listed as Homo sapiens) [compound 187] | “+++” (≥50 = +++)
188 (GLFPVTPEAV; listed as Homo sapiens) [compound 188] | “+++” (≥50 = +++)
189 (ALQRKLPYV; listed as Homo sapiens) [compound 189] | “+++” (≥50 = +++)
190 (FLSSLTETI; listed as Homo sapiens) [compound 190] | “+++” (≥50 = +++)
191 (LLQEGQALEYV; listed as Homo sapiens) [compound 191] | “++” (≥20% = ++)
193 (QLLDADGFLNV; listed as Homo sapiens) [compound 193] | “+++” (≥50 = +++)
195 (GLFADLLPRL; listed as Homo sapiens) [compound 195] | “+++” (≥50 = +++)
196 (YLYSVEIKL; listed as Homo sapiens) [compound 196] | “++++” (≥75% = ++++)
202 (ALLDQQGSRWTL; listed as Homo sapiens) [compound 202] | “+++” (≥50 = +++)

Substance | Peptide exchange (MHC class I binding score, peptide exchange yield)
204 (KIAENVEEV; listed as Homo sapiens) [compound 204] | “++” (≥20% = ++)
206 (VLQEGKLQKLAQL; listed as Homo sapiens) [compound 206] | “+++” (≥50 = +++)
207 (GLTSTNAEV; listed as Homo sapiens) [compound 207] | “++” (≥20% = ++)
208 (KISPVTFSV; listed as Homo sapiens) [compound 208] | “+++” (≥50 = +++)
210 (LLLNAVLTV; listed as Homo sapiens) [compound 210] | “++” (≥20% = ++)
215 (QLINHLHAV; listed as Homo sapiens) [compound 215] | “+++” (≥50 = +++)
216 (NLWEDPYYL; listed as Homo sapiens) [compound 216] | “+++” (≥50 = +++)
217 (ALIHPVSTV; listed as Homo sapiens) [compound 217] | “++” (≥20% = ++)
218 (SALEELVNV; listed as Homo sapiens) [compound 218] | “++” (≥20% = ++)
219 (KLSDIGITV; listed as Homo sapiens) [compound 219] | “+++” (≥50 = +++)
220 (LLQKFVPEI; listed as Homo sapiens) [compound 220] | “++” (≥20% = ++)
221 (ALYEEGLLL; listed as Homo sapiens) [compound 221] | “++” (≥20% = ++)
223 (ALLENIALYL; listed as Homo sapiens) [compound 223] | “+++” (≥50 = +++)
224 (TLIDAQWVL; listed as Homo sapiens) [compound 224] | “+++” (≥50 = +++)
225 (SLLKVLPAL; listed as Homo sapiens) [compound 225] | “+++” (≥50 = +++)
226 (MLYVVPIYL; listed as Homo sapiens) [compound 226] | “++” (≥20% = ++)

Continued, values first:

Peptide exchange (MHC class I binding score, peptide exchange yield) | Substance
“+++” (≥50 = +++) | 175 (YLFENISQL; listed as Homo sapiens) [compound 175]
“++” (≥20% = ++) | 176 (YLMEGSYNKVFL; listed as Homo sapiens) [compound 176]
“+++” (≥50 = +++) | 181 (LLWAGTAFQV; listed as Homo sapiens) [compound 181]
“++” (≥20% = ++) | 185 (FLIDDKGYTL; listed as Homo sapiens) [compound 185]
“++” (≥20% = ++) | 186 (TLFFQQNAL; listed as Homo sapiens) [compound 186]
“+++” (≥50 = +++) | 192 (KMLDGASFTL; listed as Homo sapiens) [compound 192]
“+++” (≥50 = +++) | 194 (ALPLFVITV; listed as Homo sapiens) [compound 194]
“++” (≥20% = ++) | 197 (ALGPEGGRV; listed as Homo sapiens) [compound 197]
“+++” (≥50 = +++) | 198 (KTINKVPTV; listed as Homo sapiens) [compound 198]
“+++” (≥50 = +++) | 200 (LLFGSVQEV; listed as Homo sapiens) [compound 200]
“+++” (≥50 = +++) | 201 (RLVDYLEGI; listed as Homo sapiens) [compound 201]
“+++” (≥50 = +++) | 205 (SLYPGTETMGL; listed as Homo sapiens) [compound 205]
“++” (≥20% = ++) | 209 (KLIESKHEV; listed as Homo sapiens) [compound 209]
“++” (≥20% = ++) | 211 (LLWPGAALL; listed as Homo sapiens) [compound 211]
“++” (≥20% = ++) | 212 (ALWDQDNLSV; listed as Homo sapiens) [compound 212]
“+++” (≥50 = +++) | 214 (FLLDLDPLLL; listed as Homo sapiens) [compound 214]
“++” (≥20% = ++) | 222 (NLIENVQRL; listed as Homo sapiens) [compound 222]
